Laboratory results reported in publication PMC2408616, “Modular Organization and Combinatorial Energetics of Proline–Tyrosine Nuclear Localization Signals” (PLoS Biology, 2008).
Changes are numbered by the printed parent chain. Numbers in names are those of the source.

B1: MBP–Hrp1p NLS 519RGGYN523/AAAAA (domain or fragment, S. cerevisiae, UniProt Q99383 494-534, looked up)
chain: RDRNDRDRDYNHRSGGNHRRNGRGGAAAAARRNNGYHPYNR
notes: Hrp1p NLS, residues 494-534; source: E. coli BL21(DE3), purified (amylose resin, cation exchange)
B2: MBP–Hrp1p NLS 506RSGG509/AAAA (domain or fragment, S. cerevisiae, UniProt Q99383 494-534, looked up)
chain: RDRNDRDRDYNHAAAANHRRNGRGGRGGYNRRNNGYHPYNR
notes: as for B1
B3: MBP–Hrp1p NLS 516RGG518/AAA (domain or fragment, S. cerevisiae, UniProt Q99383 494-534, looked up)
chain: RDRNDRDRDYNHRSGGNHRRNGAAARGGYNRRNNGYHPYNR
notes: as for B1
B4: MBP–Hrp1p NLS 512RRNG515/AAAA (domain or fragment, S. cerevisiae, UniProt Q99383 494-534, looked up)
chain: RDRNDRDRDYNHRSGGNHAAAARGGRGGYNRRNNGYHPYNR
notes: as for B1
B5: MBP–Hrp1p NLS 524RR525/AA (domain or fragment, S. cerevisiae, UniProt Q99383 494-534, looked up)
chain: B3 chain with A23R, A24G, A25G, R31A, R32A
notes: as for B1
B6: MBP–Hrp1p NLS Y529A (domain or fragment, S. cerevisiae, UniProt Q99383 494-534, looked up)
chain: B3 chain with A23R, A24G, A25G, Y36A
notes: as for B1
B7: MBP–Hrp1p NLS R512, R513, R516, R519/KKKK (domain or fragment, S. cerevisiae, UniProt Q99383 494-534, looked up)
chain: RDRNDRDRDYNHRSGGNHKKNGKGGKGGYNRRNNGYHPYNR
notes: Hrp1p NLS, residues 494-534; also called quadruple mutant (arginines to lysines); source: E. coli BL21(DE3), purified (amylose resin, cation exchange)
B8: MBP–Hrp1p NLS Y529L (domain or fragment, S. cerevisiae, UniProt Q99383 494-534, looked up)
chain: B3 chain with A23R, A24G, A25G, Y36L
notes: as for B1
B9: MBP–Hrp1p NLS R512,R513,R516,R519/AAAA (domain or fragment, S. cerevisiae, UniProt Q99383 494-534, looked up)
chain: B4 chain with A21N, A22G, R23A, R26A
notes: Hrp1p NLS, residues 494-534; also called quadruple mutant (arginines to alanines); source: E. coli BL21(DE3), purified (amylose resin, cation exchange)
B10: MBP–Nab2p NLS 226RGGRN230 to alanines (domain or fragment, S. cerevisiae, UniProt P32505 201-251, looked up)
chain: DNSQRFTQRGGGAVGKNRRGGRGGNAAAAANNSTRFNPLAKALGMAGESNM
notes: Nab2p NLS, residues 201-251; source: E. coli BL21(DE3), purified (amylose resin, cation exchange)
B11: MBP–Nab2p NLS 222RGG224 to alanines (domain or fragment, S. cerevisiae, UniProt P32505 201-251, looked up)
chain: DNSQRFTQRGGGAVGKNRRGGAAANRGGRNNNSTRFNPLAKALGMAGESNM
notes: as for B10

Target: T1, Kap104p, P38217
T1 chain: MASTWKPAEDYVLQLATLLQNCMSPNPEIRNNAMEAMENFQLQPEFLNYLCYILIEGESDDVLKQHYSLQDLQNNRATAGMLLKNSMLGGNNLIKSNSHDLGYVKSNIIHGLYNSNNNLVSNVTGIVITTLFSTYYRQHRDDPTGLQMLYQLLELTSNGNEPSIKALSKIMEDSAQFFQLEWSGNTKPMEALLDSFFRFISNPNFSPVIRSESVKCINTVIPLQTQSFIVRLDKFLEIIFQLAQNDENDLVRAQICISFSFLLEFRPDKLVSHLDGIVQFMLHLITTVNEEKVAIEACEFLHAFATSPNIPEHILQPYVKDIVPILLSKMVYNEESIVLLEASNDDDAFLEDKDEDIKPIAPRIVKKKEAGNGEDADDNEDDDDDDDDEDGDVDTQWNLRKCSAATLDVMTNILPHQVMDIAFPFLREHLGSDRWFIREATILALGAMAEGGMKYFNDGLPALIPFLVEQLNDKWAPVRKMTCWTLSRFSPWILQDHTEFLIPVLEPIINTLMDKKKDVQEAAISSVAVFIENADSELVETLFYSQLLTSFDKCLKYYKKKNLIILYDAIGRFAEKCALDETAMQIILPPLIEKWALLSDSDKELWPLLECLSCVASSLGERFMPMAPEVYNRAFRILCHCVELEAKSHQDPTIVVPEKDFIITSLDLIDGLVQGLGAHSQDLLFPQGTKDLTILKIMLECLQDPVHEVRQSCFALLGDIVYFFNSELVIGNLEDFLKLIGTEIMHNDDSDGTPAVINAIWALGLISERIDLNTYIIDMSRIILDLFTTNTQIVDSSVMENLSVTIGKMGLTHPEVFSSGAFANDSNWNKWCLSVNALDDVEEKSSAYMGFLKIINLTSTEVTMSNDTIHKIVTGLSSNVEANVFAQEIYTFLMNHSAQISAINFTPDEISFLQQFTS
Test: ITC
Conditions: chain shown with the change

Row | Molecule | ddG [kcal/mol] | ratio to parent
1 | B1 | -0.4 | 0.5
2 | B2 | 0.02 | 1.3
3 | B3 | -0.3 | 0.7
4 | B4 | 0.2 | 1.5

Same assay, conditions: chain shown with the change;; parent: 0.09 ± 0.7

Row | Molecule | other: TΔS [kcal/mol/K]
5 | B1 | -3.8
6 | B2 | -2.6
7 | B3 | 2
8 | B4 | 1.5

Same assay, conditions: chain shown with the change;; parent: 32 ± 16

Row | Molecule | Kd [nM]
9 | B1 | 17
10 | B2 | 42
11 | B5 | 62
12 | B3 | 24
13 | B4 | 48

Same assay, conditions: chain shown with the change;; parent: -10.0 ± 0.5

Row | Molecule | other: ΔH [kcal/mol]
14 | B1 | -14.2
15 | B2 | -12.6
16 | B3 | -8.3
17 | B4 | -8.3

Same assay, conditions: chain shown with the change;; parent: -10.1 ± 0.3

Row | Molecule | dG [kcal/mol]
18 | B1 | -10.4
19 | B2 | -10
20 | B3 | -10.3
21 | B4 | -9.8

Target: T2, Kap104p (yeast (S. cerevisiae), UniProt P38217 1-918)
T2 chain: T1 chain
Test: ITC
Conditions: not given

Row | Molecule | Kd [nM]
22 | RDRNDRDRDYNHRSGGNHRRNGRGGRGGYNRANNGYHPYNR [MBP–Hrp1p NLS R525A] | 13
23 | RDRNDRDRDYNHRSGGNHARNGRGGRGGYNRRNNGAHPYNR [MBP–Hrp1p NLS R512A, Y529A] | 60
24 | RDRNDRDRDYNHRSGGNHRRNGRGGRGGYNARNNGYHPYNR [MBP–Hrp1p NLS R524A] | 37
25 | RDRNDRDRDYNHRSGGNHARNGRGGRGGYNAANNGYHPYNR [MBP–Hrp1p NLS R512A, 524RR525/AA] | 44
26 | B6 | 143
27 | B7 | 36
28 | B8 | 37
29 | B9 | 194

Target: Kap104p (UniProt P38217)
Test: ITC
Conditions: not given

Row | Molecule | ddG [kcal/mol] | ratio to parent
30 | MBP–Hrp1p NLS (from UniProt Q99383) R512A; 524RR525/AA | 0.1 | 1.4

Same assay, conditions: parent: 0.09 ± 0.7

Row | Molecule | other: TΔS [kcal/mol]
31 | MBP–Hrp1p NLS (from UniProt Q99383) R512A; 524RR525/AA | 0.06

Same assay, conditions: parent: -10.0 ± 0.5

Row | Molecule | other: ΔH [kcal/mol]
32 | MBP–Hrp1p NLS (from UniProt Q99383) R512A; 524RR525/AA | -9.9

Same assay, conditions: parent: -10.1 ± 0.3

Row | Molecule | dG [kcal/mol]
33 | MBP–Hrp1p NLS (from UniProt Q99383) R512A; 524RR525/AA | -9.9

Target: T1, Kap104p, P38217
Test: ITC
Parameters: other: TΔS: unit not given here
Conditions: chain shown with the change
Remark: another data set of the same source

Row | Molecule | ddG [kcal/mol] | ratio to parent
34 | B10 | 0.3 | 1.6
35 | B11 | 0.3 | 1.6

Same assay, conditions: chain shown with the change;; parent: 37 ± 20

Row | Molecule | Kd [nM]
36 | B10 | 59
37 | B11 | 58

Same assay, conditions: chain shown with the change;; parent: -1.3 ± 0.6

Row | Molecule | other: TΔS
38 | B10 | -0.2
39 | B11 | 0.06

Same assay, conditions: chain shown with the change;; parent: -10.0 ± 0.3

Row | Molecule | dG [kcal/mol]
40 | B10 | -9.7
41 | B11 | -9.7

Same assay, conditions: chain shown with the change;; parent: -11.3 ± 0.5

Row | Molecule | other: ΔH [kcal/mol]
42 | B10 | -9.9
43 | B11 | -9.6

Target: T3, Kap104p (yeast (S. cerevisiae), UniProt P38217 1-918)
T3 construct: Kap104p, yeast homolog of Kapβ2; gene a gift from J. Aitchison, subcloned into pGEX-Tev; also called yeast Karyopherin β2 homolog; source: E. coli Rosetta(DE3)pLysS, purified (glutathione sepharose, TEV cleavage, anion exchange, gel filtration)
T3 sequence (looked up): T1 chain
Test: ITC; 90–350 μM MBP-NLS titrated into 9–35 μM Kap104p in the cell; 20 °C; 20 mM Tris pH 7.5, 100 mM NaCl, 2 mM β-mercaptoethanol, 10% glycerol; 35 injections of 8 μl; single-site model
Conditions: both partners purified

Row | Molecule | binding result | KD,mutant/KD,wild type | fold decrease in binding against wild type [fold]
44 | B1 | binds | – | –
45 | B6 | – | 4 | –
46 | B2 | binds | – | –
47 | B7 | binds | – | –
48 | B5 | – | 1.7 | –
49 | B8 | binds | – | –
50 | B3 | binds | – | –
51 | B9 | – | – | 5
52 | B4 | binds | – | –
53 | B10 | binds | – | –
54 | B11 | binds | – | –
